Experimental data taken from US6582899B1, “Methods for identifying agents that cause a lethal phenotype, and agents thereof” (Deltagen Proteomics, Inc., priority 2000, dated 2003).

Key:
[1] = system: HuVECs (Human Umbilical Vein Endothelial Cells); assay: Cell viability of HuVECs after introduction of clone; format: cell-based; details: 16 hour time point
Text: In addition to cycling these library sequences (obtained as described above) through an additional round of negative selections, 50 clones were taken from each of the Cycle 5, day five pools for sequence analysis. […] Both of the BID clones obtained from these negative selections encode N-terminal truncations of the native protein (BID Clone #1 encodes amino acids 33-195, BID Clone #2 encodes amino acids 76-195, See FIG. 9). BID clone #1 was reintroduced into fresh, naive HT29 cells and floater rates were compared with cells that had been mock infected or infected with the control vector, pVT324. […] In a similar experiment, BID clone #1 was introduced into HuVECs (Human Umbilical Vein Endothelial Cells, Clonetics/Biowhittaker) and cell viability was followed over the course of 16 hours. While control cells gave a background of 1% cell death at the 16 hour time point, 80% of the cells in the BID clone #1-infected culture died during the same period of time.

HT29 colon cancer cells = assay: HT29 floater assay (negative selection); format: cell-based; details: individual clone reintroduced into HT29 cells
Protocol: HT29 cells were tested for feasibility in the floater cell assay as follows. Briefly, six flasks were inoculated with 6.25×10^5 HT29 cells/flask on Day 0. On Day 1, after the cells had been allowed to adhere to the solid support, two of these flasks were infected with retroviral supernatant containing the retroviral vector pVT324, which includes a selectable drug resistant marker (e.g. neomycin), and which constitutively expresses a green fluorescent protein. Of the remaining four flasks, two were mock infected (i.e. exposed to all of the same reagents/conditions as flasks 1 and 2, minus the retrovirus, see “Example 3C”) and two were left undisturbed. On Day 2, this procedure was repeated (i.e. a double infection). On Day 3 (and subsequently on Day 5) one flask was selected from each of the three groups and processed by separating and counting the floater and adherent cell populations. In the case of the floater cell population, the media was collected, centrifuged at 200×g for 10 minutes, and resuspended in PBS prior to removing a sample for counting on a hemocytometer. For the adherent cell population, cells were first removed from the flask by trypsinization, centrifuged, and then processed for analysis in a fashion analogous to the floater cells. To determine the inherent background level of floater cells present in the population, the ratio of the number of floater cells to the total number of cells (adherent cells+floater cells) was analyzed on both the Day 3 and Day 5 flasks that had not been manipulated. These numbers were compared with the analogous numbers taken from infected and mock-infected flasks to determine whether the retrovirus or transfection procedures altered background floater rates. To determine the susceptibility of HT29 cells to retroviral infection, the fraction of cells that expressed GFP in pVT324 infected flasks was calculated using flow cytometry.
Twenty T175 flasks were seeded with 2.2×10^6 HT29 cells/flask in McCoy's 5A media (Gibco BRL) modified with 10% FBS. On Day 1, each flask was infected (4 μg/ml polybrene, 50% volume) with a retroviral supernatant containing a commercially obtained brain cDNA library (“Example Three” above). On Day 2 the media was changed. On Day 3 both the floater and adherent cell populations were collected (separately) from the twenty flasks. Approximately 652,500 floaters were isolated from a theoretical background of 4.2×10^7 adherents (1.5% floaters) and frozen down for future studies. […] Additional floater cells were then collected Day 5, where the collection and counting procedures were repeated and some 7.8×10^6 floaters and 7.6×10^8 adherents were counted (1.03% floaters). […] The floater populations of Days 3 and 5 were then combined and readied for a genomic DNA prep using a QIAamp kit (Qiagen) following standard procedures. Briefly, some 9×10^6 floater cells in PBS were lysed to release gDNA. This material was passed over a QIAamp column that was then washed several times to remove protein and RNA contaminants. Twenty-seven micrograms of genomic DNA were then eluted from the columns with dH2O and treated with RNAse A to eliminate any RNA contamination. This gDNA was then subjected to PCR procedures to amplify the library sequences encoded therein. […]

B1: BID clone #1: N-terminal truncation of BID (BH3 Interacting Domain Death Agonist), encodes amino acids 33-195 (protein, UniProt P55957 33-195, looked up, fragment)
chain: FRRELDALGHELPVLAPQWEGYDELQTDGNRSSHSRLGRIEADSESQEDIIRNIARHLAQVGDSMDRSIPPGLVNGLALQLRNTSRSEEDRNRDLATALEQLLQAYPRDMEKEKTMLVLALLLAKKVASHTPSLLRDVFHTTVNFINQNLRTYVRSLARNGMD
[1]
  cells that died: 80%
HT29 colon cancer cells
  floater rate: roughly 18%
